These results are taken from article PMC11277083 (International Journal of Molecular Sciences, 2024).

This assay deals with ACE2 protein (recombinant human, CUSABIO no. CSB-MP866317HU) (human, UniProt Q9BYF1 18-740). The assay is described as follows: SPR; […] (50 ug/mL in sodium acetate pH 4.0, 10 uL/min, 420 s); […]; Biacore T200; […]. The note with it: both partners purified.
Sequence of ACE2 protein (recombinant human, CUSABIO no. CSB-MP866317HU) (Q9BYF1 18-740): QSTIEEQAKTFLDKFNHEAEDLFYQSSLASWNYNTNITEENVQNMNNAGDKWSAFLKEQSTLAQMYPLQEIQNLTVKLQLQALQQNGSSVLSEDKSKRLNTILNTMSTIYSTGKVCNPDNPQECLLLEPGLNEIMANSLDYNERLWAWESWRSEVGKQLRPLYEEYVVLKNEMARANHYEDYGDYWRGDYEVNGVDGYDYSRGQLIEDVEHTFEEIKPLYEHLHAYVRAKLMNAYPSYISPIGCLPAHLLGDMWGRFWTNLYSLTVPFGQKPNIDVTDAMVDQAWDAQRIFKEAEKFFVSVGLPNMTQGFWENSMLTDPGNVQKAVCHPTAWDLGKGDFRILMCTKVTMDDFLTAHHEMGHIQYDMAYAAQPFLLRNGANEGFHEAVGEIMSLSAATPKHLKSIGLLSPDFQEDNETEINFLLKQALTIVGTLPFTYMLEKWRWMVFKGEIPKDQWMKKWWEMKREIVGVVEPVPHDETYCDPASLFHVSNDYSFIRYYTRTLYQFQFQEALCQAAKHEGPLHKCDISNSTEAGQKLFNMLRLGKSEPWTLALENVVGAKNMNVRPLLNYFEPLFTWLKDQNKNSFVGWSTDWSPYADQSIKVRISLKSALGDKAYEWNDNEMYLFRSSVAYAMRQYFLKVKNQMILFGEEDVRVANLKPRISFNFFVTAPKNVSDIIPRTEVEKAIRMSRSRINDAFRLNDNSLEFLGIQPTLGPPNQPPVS

Consider KKCHFWPFPW [KKCH peptide], for which the Kd amounted to 624 nM, the koff was determined as 0.0958 s⁻¹ and the kon came to 154000 M⁻¹ s⁻¹.
